A short description of this data set: label from the status in PepcDB records.
“MEQKSKFSSATVFSGKLLIASLFILSGILLFARNMGWITAELFNIIVSWHSLLIILGIYSMIRRHFVGGIILVLVGVYFLLGGLSWLPENSQAMVWPLALIIAGVLFLFKSRHRGPWDDKQRMFRDHREWMKHGHHGHAGMNFTDNQQQCESEDGFLRSDNTFGAARHVVLDELFKGAVVRTSCGGTTIDLRHTHIAPGETYIDIDCSWGGVEIYVPSDWKVVFKCNTFFGGCDDKRWQNGNINKESVLVIRGRLSFGGLEVKD”: the protein production result was “failed”.

Consider “MGKEIEIERKTLVSKETFKRLISQLHIGEGDFKLQRNHYFETDDFQLKKQSSALRIREKEAIFTFTLKQPHPAGLLETNQTLSKQEAKLALESAHFPSGEVMDALRDLSIPISQLKHIGTLSTSRAEISYEQGILCLDHSSYLGIEDYEIEFEGTSEEHATVTFQEILKTFSISQVPTENKIQRFFSKKEKN”, for which the protein production entry was “not failed”.

Consider “MGSGSMLQSWNLKTSKRTGSFDAKSSINAVAISPDGNTLATGIRDNAIKLWNINDGKLIHTLTGHQGQVRTVAFSPDGTLLASGSSDGTVKLWNATTGKEINTFTAHKEQVWSVAFNPDGKTLASTGQDGSVKIWGVSPQLEHHHHHH”, for which the protein production entry is “not failed”.

With “MKKIATATIATAGIATFGLAHQDADAAENNNGYNPNDPYSYSYTYTIDQQGNYHYEWQGNWSPSQAQQGGQQNTGNQAVNNTQSNNNYNYNYNNNQSNQNTQSYTANNNAGGGLGASYSTSDRNVKVTTQNAPTTQSTSSNASSSSSSEALAGKSSGGSNLYTAGQCTYYVYDKVGGKIGSTWGNANNWATAAAADGYTVNNTPKAGAVMQTSQGAYGHVAYVESVNDDGSVKVSEMNYNGGPGVVSSRTISAGQAGSYNYIS”, the protein production entry was “failed”.

For “MIAPSRNLLLCNKGKTELNHSFSMLQAIVESTPYGLLVTNKHGHLLCYNQPYMDMWRIPPEVMVNARHQIIFGHYSSQLRDPQQFLHSTEVIYGTWLPESFDILEFLDGRAFERHTKATTLEGPNMVRVWSFKDITERRQAEAYKAQLAAMVESSDDAIIVKDLNAIITSWNAGAERIFGYQASEITGSSILALIPPERHEEEKGIMSLVKSGNRVDHFETMWWGKGKKPIDVSVTTSAVKDSDGNIVGISQIARDITKRKESQKRIEYLAHYDPLTGLPNRALLADRMKTAIENAKRYSFQLAVLFVDLDHFKLINDSLGHEIGDKLLKIVAERMRSRLRQTDTVSRLGGDEFIILLSRINAASDAACVAEKIIAALSQPYHLEQHELGLGASIGISIYPDSGKDTSSLLRSADEAMYSAKGQGRNRYHGP”, the protein production result is on record as “failed”.

Consider “MKTLYDLPIVLRNLPEDLVLEKPLPEVSVTIRAYPEILNNLTKEQISLWIDATGKAVGEHTVKIYWQLPAGIEMVSIPDVTYTLKAKEDPLEHHHHHH”, for which the protein production entry is “failed”.

Regarding “MEPTDVSTGTGKVLLLDTKRYGYWKVCMTQIIRGQEDGFKITKPKANWTAEEKLQSKFNARAMKAIFNGVDEDEFKLIQGCKSAKQAWDTLQKSHEGTSSVKRTRLDHIATQFEYLKMEPDEKIVKFSSKISALANEAEVMGKTYKDQKLVKKLLRCLPPKFAAHKAVMRVAGNTDKISFVDLVGMLKLEEMKADQDKVKPSKNIAFNADQGSEQFQEIKDGMALLARNFGKALKRVEIDGERSRGRFSRSENDDLRKKKEIQCYECGGFGHIKPECPITKRKEMKCLKCKGVGHTKFECPNKSKLKEKSLISFSDSESDDEGEELLNFVAFMASSDSSKFMSDTDSDCDEELNPKDKYRVLYDSWVQLSKDKLKLVKEKLTLEAKLANVSTEDKQKLSGITVDGNSQDYYQKKLDCLQKECHRERDRTKLLERELNDKYKQIRMLNKGLESLDKILAMGRTDSQQRGLGYQGYTGKIKKEEGRVINFVSGGSTSETVVRQSYIEPKKQVKSHVEIKRESVVRTRMVGVICCDHCGKRFHMREQCYKFKEKVRTLWNLAKCFIEPSRFCTVWIKKKDLYGDMEAERYNHKLERMYEEEEMHYASCCNQVNKEMQDEARKKDDSFGST”, the protein production result is “failed”.

On to “MGDSKGRVASAAVSLAEFLESCAGKWFSQRTSYRLGATQDWHQSDQTTLFVDFLAADAPELQALIAEQGLAIAALQSRWEATPQQPASTSLLVFLAEGDRLVHQRGDRCWQGRYQFEGDHRGLTLTTEQPDGQVEERFWFAHPNLRLRTSLIRDRTGLSRSSFYSEIRLGVKPPEPPAEV”, for which the protein production result was “failed”.

On to “MSEKRLPLKPVLRIDFPPGERLGHGKVELMQLIAETGSISAAGRAMDMSYRRAWLLVDALNHMFRQPVICSQRGGKQGGGAALTVFGAELLERYRGMEERMNEALREDIDWLEANRNPQDALNRDREPPTL”, for which the protein production entry is “not failed”.

Consider “MSLKTTTSSTPSDRITWVRISSCYLPLATPISDAKVLTGRQKPMTEIAILFAEIETAGGHQGLGFSYSKRAGGPGQFAHAREIAPALIGEDPSDIAKLWDKLCWAGASAGRSGLSTQAIGAFDVALWDLKAKRAGLSLAKLLGSYRDSVRCYNTSGGFLHTPIDQLMVNASASIERGIGGIKLKVGQPDGALDIARVTAVRKHLGDAVPLMVDANQQWDRPTAQRMCRIFEPFNLVWIEEPLDAYDHEGHAALALQFDTPIATGEMLTSAAEHGDLIRHRAADYLMPDAPRVGGITPFLKIASLAEHAGLMLAPHFAMELHVHLAAAYPREPWVEHFEWLEPLFNERIEIRDGRMLVPTRPGLGLTLSGQVKAWTREEAQVGTRPEGHHHHHH”, for which the protein production result is “not failed”.

Take “RSRPSPYACHVEAWAADGRQRVRMANPGHATLVLHVYDCLRLAQGPRRYTIEPGRQWEDSWPDAGADLACDLWILGPDGFHRHIRR”: the protein production entry was “failed”.

Turning to “MKKKLGLLAMVVALMAIATGCSETGQPITSKSTGIWNEYFVYPLSQLITYFADLFNSNYGLAIVITTLIIRFALLPLMIKQTKSTKAMQALQPEMVKLKEKYSSKDQATQQKLQQEMMQLYQKNGVNPLAGCLPIFVQMPILFAFYHAIMRTAEIKQHSFLWFDLGHADPFYILPVVAAITTFIQQKLAMAGTAGQNPQMAMMLWLMPIMILIFAINFPAALSLYWVVGNIFGIAQMYFIKGPEIKASKAGKAGGSSK”, the protein production result is recorded as “failed”.

On to “MNLDAPRVLVLNAAYEVLGLASIKRAVLLVLGGGAEMVSESGLYLNTPSTRIPVPSVVRLKRMVRRRPGRVPLNRRNVLRRDRYTCQYCGQKGGELTVDHVLPKSRGGKSTWDNLVAACRSCNLRKGDRTPEEAGMRLLRPPKPPRVPLFLLDLKEVPPDWRPFVEGLLGLEHHHHHH”, for which the protein production entry is recorded as “not failed”.

With “MNTFAIPAPLIDAWRTTLETLRNLTGLGFGLLTRENGGELEIMVTAGELPSPFAEGYCLKGGPEGPLCAVVHTLARSLLIPDTTADARWASNPAVKAGVRAYFGLPLRLPTGALFGTLCLGSMSPVTGHDAVLKPLHCFATLVEQHIALLSTNALLRSQLDALPGASFASDPHGQMLFASNRCGSLLDLHPADIPGSDVDTVFNRIAALCESPEECHAILRRSFTLGGPSNGKLAFDDGRTIRWQARRLREDAGSVLGCTWFLEDATAELQARAGLTRSEALFRGLFNNAAVGIVLLDRQGFVVRSNVACARMLGTSPEQMHGLSFRAVLPPEDADQHLEEMQSLAEGETDELHGCWEMLHRNGSRLRVDLHGARLPGSGEEVVMLVGVDVTEQWRTERALAESERRYRALFDNAQAGIFRTSLADGTFLEANLRMAQMFGYDDVATFMAEYRAAENYVDPADRALMLDRLRTSGSFATMETHMRRRDGTTTWFLYSGTLDGDTIIGVANEISEMRATQEALRRSEERYRALFDNAADGLLLYEADGTLIDVNETIARRLGESREAIVGRNVASIVEPEVLERVRPRLAEILETGHASFESVHRTAMGPVNVEVHARRIEFEGRFVVLSSARDITERKNLEAALLREATTDPLTGGRNRRQFFVDANREFARALRHDSGLAVLMLDIDHFKNVNDLYGHQAGDEVLRAFAACCVEALRAYDVFGRLGGEEFAALLPAASPEEAMETAERLRKRVERRSVVYEGTALQCTVSVGVTSLAAADLGFDDMLRRADRALYAAKDHGRNRSEMAPMPMVPAEIPPPRKPFRE”, the protein production entry was “failed”.

With “MKTRDKIIQASLELFNEHGERTITTNHIAAHLDISPGNLYYHFRNKEDIIRCIFDQYEQHLLLGFKPYADQKVDLELLMSYFDAMFYTMWQFRFMYANLADILARDDTLKARYLKVQQAVLEQSIAVLNQLKKDGILQIEDERIADLADTIKMIIGFWISYKLTQSSIATISKASLYEGLLRVLMIFKAYSTPDSLANFDRLEQHFRSQSN”, the protein production result is “not failed”.

As for “MATFMTEDFLLKNDIARTLYHKYAAPMPIYDFHCHLSPQEIADDRRFDNLGQIWLEGDHYKWRALRSAGVDESLITGKETSDYEKYMAWANTVPKTLGNPLYHWTHLELRRPFGITGTLFGPDTAESIWTQCNEKLATPAFSARGIMQQMNVRMVGTTDDPIDSLEYHRQIAADDSIDIEVAPSWRPDKVFKIELDGFVDYLRKLEAAADVSITRFDDLRQALTRRLDHFAACGCRASDHGIETLRFAPVPDDAQLDAILGKRLAGETLSELEIAQFTTAVLVWLGRQYAARGWVMQLHIGAIRNNNTRMFRLLGPDTGFDSIGDNNISWALSRLLDSMDVTNELPKTILYCLNPRDNEVLATMIGNFQGPGIAGKVQFGSGWWFNDQKDGMLRQLEQLSQMGLLSQFVGMLTDSRSFLSYTRHEYFRRILCNLLGQWAQDGEIPDDEAMLSRMVQDICFNNAQRYFTIK”, the protein production result is recorded as “not failed”.

In the case of “MKAFFSFVIRWVIPLLGLIALSLIIWFIGPLLEFLVPEGRRWALIIFIFALWIGYRVFCIIQARRNAAKVLQSLAADTPPDPDSVATAEELAALRQRMDEALALLKKAKLGGDERRNLYELPWYVIIGPPGSGKTTALVNSGLHFPLAAQLGAGAVRGVGGTRNCDWWFTDQAVLLDTAGRYTTQDSHATVDKAAWLGFLDLLKTQRSRRPIDGAFVAISLSDLLLGSEAERAAHAAAIRLRIQELYTQLGVRFPIYLMLTKLDLVPGFMEFFDSLSKEERAQVWGMTFALDDGKSGDSPLAHLPAELAALEQRLNERLVERLQQERDPARRDLIYGFPQQFAALKESLQSFLEGVFKPNAFEERVLLRGVYFTSGTQEGSPIDRLIGAMAQSMNLDRQHLARQTGTGRSYFIEKLFSAVAFAERGLVGVNPKVERRRKWIARGALAGTVALVLVVSTLWIISYRANQAYIAQVDQRVGPVRQDVQNLSPAQRDVLAVLPLLNATRHLAGDAPGWAEGLGLYQGDMLEAESASVYRKLLVAVFAPRLMTRIEEQLHSGGNSDFLYEGLKAYLMLADSEHYDPDFIKAWITLDWDHTLARDLPPEQRQALTGHLQALFEKHPPNARLDQRLIDDLRRQLQQLPVAQRVYDRVKRAKLPDGVPDFRLSEAGGRDAALVFTRKSGKPLSEPLSGLFTAKGYRQGFLLASLNQAGTLAEEQWVLGRDQADQQNVASLAADVRRLYFQDYLRQWDALLADIDFVPITSVAQAADVLRILSGPTSPLKKLLVAVAKETDLQQEERLLAAQGQKVEGGVDQLKQRLGNLLGQEQSANPAAVASSEDPVSAHFAELNSLVSKGEGEPAAIDGLLADMNALYVQVSAMVGASGDALLGEAKNQASAAAARVSLTAERQPPVVQGLVKSVVGSTTNTMMGGVRNQLNAAWVSEVVNVYRQSLSGRYPMSPGSSRDATLEDFGQFFGTGGVMDNYFRKYLQPYVNTSTTTWSWQPGAAQKLGISPGVLQTFQRASNIRDAFFRSSGGTQPAVRFELKPVAMDANISQFLLDLDGQQLSYDHGPSRPVAMQWPNPGSIGVVRLSIMPPSATGRSGITLDGPWAWFRLLEQSDLTATNSPDRFNLRLRVDGASISYELRASSAFNPFKSRVLSGFSLPERL”, the protein production result is given as “failed”.

Regarding “AAVLTQDKNTPTYGPANGKVTVIEFFDYQCVYCSRLAPVMEQVIKAHPQTRFAFKEWPIFGGRWESSLEAAKTGLQIYQQKGADAYLAYHNGIYATGHNEGKLTTADIQQQAKKAGFDAKKAADVEPVLQSINDLAQEIGLSGTPGVIVMPTTGATEASITVFPGLADKASLEAAIKKAGG”, the protein production entry is on record as “failed”.

For the origin of these results see a protein production outcome set (Wang et al. 2014).
